From patent US6905818 (MAX PLANCK GESELLSCHAFT ZUR FORDERUNGDER WISSENSCHAFTEN, dated 2005)

Molecular target: T1, LexA protein expressed from pBTM117c (UniProt P0A7C2 1-202)
T1 construct: range 1-220; also called strain x1a
T1 sequence (looked up): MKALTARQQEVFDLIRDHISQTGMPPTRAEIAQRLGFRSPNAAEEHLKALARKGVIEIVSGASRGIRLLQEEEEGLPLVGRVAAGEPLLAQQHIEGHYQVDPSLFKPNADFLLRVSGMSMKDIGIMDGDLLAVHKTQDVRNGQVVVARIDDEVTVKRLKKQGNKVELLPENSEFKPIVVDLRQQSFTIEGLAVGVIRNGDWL
Assay: yeast two-hybrid, growth on SD-leu-trp-his and β-galactosidase membrane assay
Description: Two transformants from each transformation were investigated for the presence of protein—protein interactions by testing the ability of the yeast cells to grow on SD-leu-trp, SD-leu-trp-his, SD-leu+CAN and SD-trp+CHX plates and by the β-galactosidase membrane assay (Breeden and Nasmyth, 1985). […] After selection of the yeast strains harboring the different combinations of the two-hybrid plasmids on SD-leu+CAN and SD-trp+CHX the resulting strains were also analyzed by the β-galactosidase assay. After incubating the membrane containing all three strains on SD-trp+CHX medium only progeny of the yeast strain that originally harbored both the plasmids pBTM117c-HIP1 & pGAD427 yet which had lost the pGAD427 plasmid through counterselection turned blue after incubating in X-Gal solution. […] In comparison, the yeast strain harboring both the plasmids pBTM117c-SIM1 & pGAD427-ARNT is a positive clone that expresses interacting LexA and GAL4ad fusion proteins, because both the LexA and the Gal4ad fusion proteins are necessary for the activation of the reporter genes. […] With the membranes from the SD-leu+CAN plate false positive clones expressing an auto-activating GAL4ad-LexA fusion protein were also detected by the β-galactosidase assay.

B1: GAL4ad expressed from pGAD427 (other, yeast, UniProt P04386 768-881, looked up)
chain: ANFNQSGNIADSSLSFTFTNSSNGPNLITTQTNSQALSQPIASSNVHDNFMNNEITASKIDDGNNSKPLSPGWTDQTAYNAFGITTGMFNTTTMDDVYNYLFDDEDTPPNPKKE
notes: range 768-881; also called strain y1α
Does B1 bind?
Result: no binding
